Assays:
[1] = system: HEK-SST2 cells; test: Cellular uptake and distribution on intact HEK-SST2 cells; type: cell-based, human; settings: specific uptake, after 4 h at 37°C
Method: At the defined time points, the medium was removed, and the cells were washed twice with ice-cold PBS. The cells were then treated twice for 5 min with ice-cold glycine solution (0.05 M, pH 2.8) to detach the cell membrane-bound fraction (acid released). Afterward, the cells containing the internalized fraction were detached using NaOH 1 M at 37°C and collected for measurement. [^68Ga]Ga-DOTA-TOC was evaluated as a reference.

[2] = type: physicochemical; settings: pH 7.4
Method: Briefly, the radiotracer (10 µl, 1 µM) was added to 1 ml of a 1:1 pre-saturated mixture of 1-octanol and phosphate-buffered saline (PBS pH 7.4). The solution was vortexed for 30 min and then centrifuged at 3,000 rpm to achieve phase separation. Aliquots of 0.1 ml from each phase were collected and measured in a γ-counter. The distribution coefficient was calculated as the average of the logarithmic values (n = 3) of the ratio between the radioactivity in the organic and PBS phases. [^68Ga]Ga-DOTA-TOC was used as a reference.

[3] = system: HEK-SST2 xenografts; settings: female, athymic nude-Foxn1^nu/Foxn1^+, mouse, in vivo, 200 pmol, 1 h
[4] = in vivo; cited from earlier work
[5] = mouse, in vivo; cited from earlier work

Molecule | Cellular uptake (surface bound + internalized) [1] | log D(O/PBS pH 7.4) [2] | Adrenal uptake [3] | Blood uptake [3] | Bone uptake [3] | Heart uptake [3] | Intestine uptake [3] | Kidneys uptake [3] | Liver uptake [3] | Lung uptake [3] | Pancreas uptake [3] | Pituitary uptake [3] | SST2-tumor uptake [3] | Stomach uptake [3] | Effective dose [4] | Kidney dose [5] | Total-body absorbed dose [5]
C[C@@H](O)[C@@H]1NC(=O)[C@H](CCCCN)NC(=O)[C@@H](Cc2c[nH]c3ccccc23)NC(=O)[C@H](Cc2ccc(O)cc2)NC(=O)[C@@H](NC(=O)[C@@H](Cc2ccccc2)NC(=O)CN2CCN(CC(=O)O)CCN(CC(=O)O)CCN(CC(=O)O)CC2)CSSC[C@@H](C(=O)N[C@H](CO)[C@@H](C)O)NC1=O [[^68Ga]Ga-DOTA-TOC] [[^68Ga]Ga-DOTA-Tyr^3-octreotide, metal not drawn] | 79.0 ± 3.1% | −3.18 ± 0.11 | 2.57 ± 0.78 %IA/g | 0.63 ± 0.09 %IA/g | 0.49 ± 0.07 %IA/g | 0.27 ± 0.03 %IA/g | 1.39 ± 0.28 %IA/g | 8.37 ± 0.84 %IA/g | 0.58 ± 0.07 %IA/g | 1.68 ± 0.32 %IA/g | 4.77 ± 1.16 %IA/g | 3.29 ± 0.63 %IA/g | 6.64 ± 1.11 %IA/g | 3.73 ± 0.36 %IA/g | 0.021-0.0257 mSv/MBq | – | –
[^68Ga]Ga-DOTA-Tyr^3-octreotate [[^68Ga]Ga-DOTA-TATE] | – | – | – | – | – | – | – | – | – | – | – | – | – | – | 0.021-0.0257 mSv/MBq | 9.01 × 10^−2 mGy/MBq | 1.27 × 10^−3 mGy/MBq
